In paper PMC9684487, “Human antibody recognition and neutralization mode on the NTD and RBD domains of SARS-CoV-2 spike protein” (Scientific Reports, 2022):

B1: 7G7/κ (antibody, V domains shown)
VH: QVQLVESGGGVVQPGRSLRLSCIASGFTFRNYAMYWVRQAPGKGLEWVAVIWYDGSNKFYTDSVKGRFTISRDNSKNSLYLQMNSLRAEDTAVYFCARDQGFGDNYYYYGMDVWGQGTTVTVSS
VL: SYELTQPPSVSVSPGQTARISCSGDALPKEYAYWYQQKPGQAPVLVIYKDSERPSGIPERFSGSSSGTTVTLTISGVQAEDEADYYCQLADSSMHYVVFGGGTKLTVL
notes: also called 7G7-IgG1κ; 7G7/κ (IgG1/Igκ); source: Expi293F, cotransfected with IgH and IgL vectors, purified (HiTrap Protein G)
B2: NIBIC-71 (antibody, V domains shown)
VH: EVQLVESGGGLIQPGGSLRLSCEASGLIVSSNYMTWVRQAPGKGLEWVSVIYSGGSTFYADSVKGRFTVSRDNSKNTLYLQMNNLSPEDTAVYYCARDLGPYGVDVWGQGTTVTVSS
VL: AIQLTQSPSSLSASVGDRVTITCRASQGISSYLAWYQQTPGKAPKLLIYAASTLQSGVPSRFSGSGSGTDFTLTISSLQPEDFATYYCQQLNSYPPFTFGPGTKVDIK
notes: also called recombinant mAb NIBIC-71

Target: T1, S protein trimer with D614G mutation (SARS-CoV-2, D614G, D614G)
T1 construct: also called Spike; homotrimeric S protein
Test: cryo-EM structure
Settings: both partners purified

Row | Binder | stoichiometry N [Fabs per S protein trimer]
1 | B1 | 3
2 | B2 | 2
